We go through 2 molecules from patent US20210108251, “DETECTION OF ENDONUCLEASE ACTIVITY” (AARHUS UNIVERSITET, published 2021).

Data set [1] deals with T1, EcoRI (UniProt P00642 P00642:2-277). The experiment in a line: cleavage_in_vitro; assayed as pair with SEQ 1; cleavage-ligation-RCA readout; Mg acetate pH 7.9, 37 C; std error 6.6. Conditions: tags: Thermo Scientific; chain copies: 2; hairpin. Here is the method:
(§1) For detection of EcoRI activity, 50 pmol of each of the two substrates REN2-ID33-EcoRI (SEQ ID NO: 1) and REN2-PB-EcoRI (SEQ ID NO: 2) were incubated for 1 h at 37° C. either with or without 10 units of EcoRI. The reaction was done in a reaction buffer containing 500 mM Potassium Acetate; 200 mM Tris-acetate; 100 mM Magnesium Acetate; and 1 mg/ml BSA (pH 7.9). The reaction volume was 50 μL. After incubation, the restriction endonuclease was inactivated by heating to 94° C. for 10 minutes. ATP was added to a final concentration of 10 mM and 1 unit of T4 ligase (Invitrogen) was added. The reaction mixture was then incubated over night at room temperature.
(§2) The two substrate molecules carrying the EcoRI cleavage sites (see materials and methods) were incubated with or without purified enzyme and subjected to the protocol as described in materials and methods (see also FIG. 1A). After counting the signals, the fold increase over background (no enzyme) was calculated.

The target of data set [2] is T1, EcoRI. The experiment in a line: cleavage_in_vitro; assayed as pair with SEQ 2; cleavage-ligation-RCA readout; Mg acetate pH 7.9, 37 C; std error 6.6. The following applies: tags: Thermo Scientific; chain copies: 2; hairpin. Here is the method: as §1, §2

T1 sequence (P00642 2-277, one chain of several): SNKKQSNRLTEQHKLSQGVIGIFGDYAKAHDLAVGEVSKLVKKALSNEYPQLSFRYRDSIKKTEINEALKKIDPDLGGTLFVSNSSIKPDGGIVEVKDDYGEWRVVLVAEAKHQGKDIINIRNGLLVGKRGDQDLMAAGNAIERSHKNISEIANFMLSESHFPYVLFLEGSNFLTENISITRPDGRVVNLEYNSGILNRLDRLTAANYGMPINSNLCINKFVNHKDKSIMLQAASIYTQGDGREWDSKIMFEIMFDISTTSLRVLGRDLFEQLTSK

B1: REN2-PB-EcoRI (structured_DNA)
DNA: ATTTCCAGAATTCTGGGTATAGGAACTTCGAACGACTCGACTGTGAAGATCGCTTATCGAGTCGTTCGAAGTTCCTATACCCAGAATTCTGGAAAT
modifications: 5'-amine and 3'-amine
In the data set with EcoRI [1], B1 registered an activity of 110 fold over no enzyme.

B2: REN2-ID33-EcoRI (structured_DNA)
DNA: ATTTGACGAATTCGTCGTATAGGAACTTCGAACGACTCGCCTCAATGCACATGTTTGGCTCCCGAGTCGTTCGAAGTTCCTATACGACGAATTCGTCAAAT
modifications: 5'-amine and 3'-amine
On to B2, for which the activity with EcoRI [2] came to 110 fold over no enzyme.
